Assay results from patent publication US8535662B2, “Apyrase therapy for bleeding conditions” (Apt Therapeutics, Inc., priority 2010, dated 2013).
Marks after values point to notes of the source that are not given here.

Legend:
[1] = system: rats, thromboembolic stroke (MCA occlusion); test: Rat model of thromboembolic stroke (MCA occlusion by preformed clot), apyrase agent plus aspirin (Example 2); assay type: in vivo; conditions: for Neurological deficits, median (interquartile range 25th to 75th), modified Bederson score: n = 10
Description: In this study, four experimental groups were included (n=10):
(1) control, saline injected gastrically;
(2) aspirin, 1.25 mg/kg (equivalent to 100 mg/day dose in human) injected gastrically once a day, starting 3 days prior to middle cerebral artery (MCA) occlusion and also MCA occlusion until the end of each experiment;
(3) apyrase, dose at 0.75 mg/kg injected IV at 2 h after MCA occlusion;
(4) combination group, aspirin and apyrase agent.
In this clinically relevant embolic model, ischemic brain injury was induced by embolizing preformed clots into the middle cerebral artery (MCA). Ten microliters of blood were withdrawn into a catheter and retained for 15 min to allow formation of a clot. Once the clot was formed, the catheter was advanced 17 mm in the ICA until its tip was 1-2 mm away from the origin of the MCA. The preformed clot in the catheter was then injected, and the catheter was removed. […]
Infarct was measured in the brain section stained with 2,3,5-triphenyltetrazolium chloride (TTC) solution. The infarct volume was expressed as a percentage of the total volume from the ipsilateral hemisphere.
Brain swelling (edema) was determined using a formula: edema=(the volume of the right hemisphere—the volume of the left hemisphere)/the volume of the left hemisphere.
Neurological deficits were determined using a modified Bederson's scoring system as following: 0: no observable deficit; 1: forelimb flexion; 2: forelimb flexion plus decreased resistance to lateral push; 3: unidirectional circling; 4: unidirectional circling plus decreased level of consciousness.
Hemorrhagic transformation was quantified by detection of extracellular hemoglobin content in brain homogenates using Drabkin's reagents.

[2] = system: ADP-induced platelet aggregation; test: Ex vivo ADP-induced platelet aggregation in platelet-rich plasma after dosing rabbits; set-up: species or system rabbit
From the text: Blood samples taken at various time points were heparinized.
Data are presented as relative light transmission versus time.

[3] = system: dogs, coronary thrombotic occlusion; test: Canine coronary thrombosis and fibrinolysis model, adjunctive treatment with rtPA (Example 7); assay type: in vivo, dog; conditions: for decrease of infarct area compared to clopidogrel treatment: percent of left ventricular area or of area-at-risk, 24 hours of reperfusion
Description: Thrombotic occlusion was induced by electrical injury to a coronary artery in dogs. […] Buccal mucosa bleeding times, PT, and aPTT were measured as indices of bleeding risk. After 24 hours of reperfusion, infarct size was determined by Evan's blue and triphenyltetrazolium chloride double staining. This protocol is illustrated in FIG. 7.

[4] = system: Fischer 344 rats, lung isograft; test: Orthotopic left lung transplantation in rats after 18 hours of cold preservation, ischemia-reperfusion injury (Example 9); assay type: in vivo, rat; conditions: for TUNEL positive EC per 400× field: 4 hours after reperfusion, 0.66 mg/kg, N=7/group
Description: Fischer 344 rats (Harlan Sprague Dawley, Inc, Indianapolis, Ind.), weighing 250 to 300 grams, were subjected to orthotopic left lung transplantation.
The cuff technique (Robson, S. C., et al., Semin. Thromb. Hemost. (2005) 31:217 was used. In brief, after general anesthesia with intraperitoneal pentobarbital (65 mg/kg), mechanical ventilation, systemic heparinization (300 units), and median laparosternotomy, donor rat lungs were flushed through the main pulmonary artery with 20 mL of cold (4° C.) low-potassium dextran glucose solution at 20 cm H2O pressure. In apyrase agent-treated groups, 0.1 mg/L apyrase agent was added to the cold preservation medium. The heart-lung block was then removed with the lungs inflated at end-tidal volume. The left lung graft was isolated, prepared, and stored in low-potassium dextran glucose at 4° C. until transplantation. After 18 hours of cold preservation, recipient animals were anesthetized, intubated with a 14-gauge catheter, and underwent a left thoracotomy. The pulmonary vessels and bronchus were anastomosed with a standard cuff technique. In the sham group, the rats underwent anesthesia and thoracotomy alone. In apyrase agent-treated groups recipients received treatment intravenously through the internal jugular vein 7 minutes after graft reperfusion. In dose response studies apyrase agent was administered at a dose of either 0.07, 0.22 or 0.66 mg/kg of recipient weight. In all other studies apyrase agent was administered at a dose of 0.66 mg/kg of recipient weight. In the vehicle-treated groups, rats received a saline bolus 7 minutes after reperfusion.
The function of the left lung was assessed 4 hours after transplantation. Rats in each group were reanesthetized with pentobarbital. After tracheostomy, the animals were mechanically ventilated with 100% oxygen and a laparosternotomy was performed. The right hilar structures were clamped to isolate the left lung graft. The animals were ventilated for 5 minutes at a tidal volume of 1.5 mL, a respiratory rate of 100 breaths/min, and 1.0 cm H2O of positive end-expiratory pressure. Arterial blood gas analysis was performed with blood samples obtained from the ascending aorta. The lungs were flushed with 20 mL of cold (4° C.) saline solution, and the lung graft was excised and divided into 3 separate sections. The upper and middle sections were snap frozen. The upper section was used for enzyme-linked immunosorbent assay (ELISA) and the middle section was used for myeloperoxidase (MPO) assay. The lower section was weighed, dried at 70° C. for 48 hours, and then reweighed for calculation of the wet/dry (W/D) ratio.
Quantitative MPO activity was determined also previously described (Krawisz, J. E., et al., Gastroenterology (1984) 87:1344). Optical density was measured at 460 nm with a spectrophotometer (model PMQ II; Carl Zeiss, Oberkochen, Germany). Color development was linear from 5 minutes to 20 minutes. One unit of enzyme activity was defined as 1.0 optical density unit per minute per milligram of tissue protein at room temperature.
Proinflammatory cytokine and chemokine measurement was made on lung samples which were homogenized with T-PER Extraction Reagent (Pierce, Rockford, Ill.). Lung homogenates were centrifuged twice at 10,000 rpm at 4° C. for 5 min, and the supernatants were collected. The content of tumor necrosis factor-α (TNF-α, interleukin-1β (IL-1β) and macrophage inflammatory protein-2 (MIP-2) were determined by using ELISA kits (BioSource International, Inc, Camarillo, Calif.) in accordance with manufacturer's instructions.
For TUNEL assay, lung specimens harvested 4 hours after reperfusion were perfused with 20 mL isotonic sodium chloride solution and inflation fixed with 20 mL HistoChoice (Amresco Inc, Solon, Ohio). Specimens were cut, mounted, de-paraffinized, and then steam-treated with Dako target retrieval solution (Dako, Carpentaria, Calif.) and quenched with 3% hydrogen peroxide. […]

rabbits = conditions: rabbit, in vivo
Description: Rabbits were anesthetized with intramuscular ketamine/xylazine followed by inhaled isoflurane to maintain a stable level of surgical anesthesia for 5 h. Arterial blood pressure was monitored continuously and values for pressure and heart rate recorded at intervals after administration of apyrase agent and/or other antiplatelet agents. Venous blood samples were collected at baseline (before agents were given) for analysis of CBC and chemistry and samples were obtained serially for assay of prothrombin time (PT) and activated partial prothromboplastin time (aPTT).

B1: sol CD39L3 R67G T69R (protein)
chain: EVLPPGLKYGIVLDAGSSGTRVYVYQWPAEKENNTGVVSQTFKCSVKGSGISSYGNNPQDVPRAFEECMQKVKGQVPSHLHGSTPIHLGATAGMRLLRLQNETAANEVLESIQSYFKSQPFDFRGAQIISGQEEGVYGWITANYLMGNFLEKNLWHMWVHPHGVETTGALDLGGASTQISFVAGEKMDLNTSDIMQVSLYGYVYTLYTHSFQCYGRNEAEKKFLAMLLQNSPTKNHLTNPCYPRDYSISFTMGHVFDSLCTVDQRPESYNPNDVITFEGTGDPSLCKEKVASIFDFKACHDQETCSFDGVYQPKIKGPFVAFAGFYYTASALNLSGSFSLDTFNSSTWNFCSQNWSQLPLLLPKFDEVYARSYCFSANYIYHLFVNGYKFTEETWPQIHFEKEVGNSSIAWSLGYMLSLTNQIPAESPLIRLPIEPPV
modifications: glycosylated; synthetically constructed apyrase
[1]; 4 h after MCA occlusion
  Neurological deficits, median (interquartile range 25th to 75th), modified Bederson score: 3
[1]; 4 h after MCA occlusion, listed as Apyrase agent
  Neurological deficits, median (interquartile range 25th to 75th), modified Bederson score: 3 (2-3)
[1]; 8 h after MCA occlusion
  Neurological deficits, median (interquartile range 25th to 75th), modified Bederson score: improved
[1]; 8 h after MCA occlusion, listed as Apyrase agent
  Neurological deficits, median (interquartile range 25th to 75th), modified Bederson score: 2 (2-3)*^
[1]; 24 h after MCA occlusion, aspirin 1.25 mg/kg gastrically once a day from 3 days prior, apyrase 0.75 mg/kg IV at 2 h
  infarct volume, percentage of the total volume of the ipsilateral hemisphere (mean±SD): 17.89±2.35%
[1]; 24 h after MCA occlusion
  Neurological deficits, median (interquartile range 25th to 75th), modified Bederson score: significantly less severe than the control group
[1]; 24 h after MCA occlusion, listed as Apyrase agent
  Neurological deficits, median (interquartile range 25th to 75th), modified Bederson score: 1.5 (1-2)*
[1]; 24 h after ischemic injury
  extracellular hemoglobin content in brain homogenates (hemorrhagic transformation, Drabkin's reagents): 0.89±0.08
[1]; 24 h after ischemic injury, aspirin 1.25 mg/kg, apyrase 0.75 mg/kg IV at 2 h
  brain edema (brain swelling): 6.70±0.93%
[2]; 0.75 mg/kg IV single bolus, 10 mM ADP
  inhibition of ADP-induced platelet aggregation: more than 95%
[2]; 0.75 mg/kg IV, 6 h after dosing
  inhibition of ADP-induced platelet aggregation: 70%
[2]; apyrase agent 0.75 mg/kg IV
  time point after dosing at which strong effects were observed (onset of antiplatelet action): 5 min
[3]; dog, in vivo
  buccal mucosa bleeding time: no detectable change
[3]; dogs, apyrase agent at 1 mg/kg
  reocclusion: completely prevented reocclusion
[3]; dogs, high dose (1 mg/kg IV)
  decrease of infarct area compared to clopidogrel treatment: 90%
[3]; dogs, low dose (0.25 mg/kg IV)
  decrease of infarct area compared to clopidogrel treatment: 80%
[4]; 0.22 mg/kg IV, 4 hours
  pulmonary edema (wet to dry weight ratio): trended to lower mean levels
[4]; 0.22 mg/kg IV, 4 hours after transplantation
  lung function (arterial PO2) compared to saline-treated recipients: trend towards better lung function
[4]; 0.66 mg/kg IV 7 minutes after reperfusion
  lung graft histopathology (hematoxylin and eosin) compared to saline-treated recipients: less apparent alveolar hemorrhage and microvascular injury
[4]; 0.66 mg/kg IV, 4 hours
  pulmonary edema (wet to dry weight ratio): significantly attenuated
[4]; 0.66 mg/kg IV, 4 hours after transplantation
  lung function (arterial PO2) compared to saline-treated recipients: significant improvement
[4]; 4 hours
  MPO activity in lung grafts: reduced
  expression of E-selectin on endothelial cells: reduced
[4]; 4 hours after engraftment
  ADP concentration in the BAL fluid relative to saline-treated recipients: significantly lower concentrations
  ATP concentration in the BAL fluid relative to saline-treated recipients: significantly lower concentrations
[4]
  TUNEL positive EC per 400× field: significantly fewer apoptotic EC
[4]; listed as apyrase
  TUNEL positive EC per 400× field: three
[4]; 4 hours after transplantation
  numbers of neutrophils recovered from the airways: significant decrease
  total cells in the BAL: significantly fewer cells
[4]; 4 hrs of reperfusion, saline about 75
  intragraft level of TNFa (ELISA): about 35 pg/mg
[4]; 4 hrs of reperfusion, saline about 1,800
  intragraft level of MIP-2 (ELISA): about 1,300 pg/mg
[4]; 4 hrs of reperfusion, saline about 2,200
  intragraft level of IL-1β (ELISA): about 1,100 pg/mg
rabbits
  PT: Neither PT nor aPTT were changed significantly
  aPTT: Neither PT nor aPTT were changed significantly
  blood pressure: Neither blood pressure nor heart rate changed significantly
  heart rate: Neither blood pressure nor heart rate changed significantly
